Experimental data reported in paper PMC8826823, “The Zinc Finger Transcription Factor BbCmr1 Regulates Conidium Maturation in Beauveria bassiana”.

Assays:
BbBrlA = target: T1, BbBrlA (Beauveria bassiana, UniProt J5JC27 1-370); assay: EMSA; shift lost with 200-fold unlabeled probe; LightShift Chemiluminescent EMSA kit, manufacturer's instructions; buffer, salt, pH and temperature not given; conditions: protein: recombinant; tags: GST; label: biotin; blunt
T1 sequence: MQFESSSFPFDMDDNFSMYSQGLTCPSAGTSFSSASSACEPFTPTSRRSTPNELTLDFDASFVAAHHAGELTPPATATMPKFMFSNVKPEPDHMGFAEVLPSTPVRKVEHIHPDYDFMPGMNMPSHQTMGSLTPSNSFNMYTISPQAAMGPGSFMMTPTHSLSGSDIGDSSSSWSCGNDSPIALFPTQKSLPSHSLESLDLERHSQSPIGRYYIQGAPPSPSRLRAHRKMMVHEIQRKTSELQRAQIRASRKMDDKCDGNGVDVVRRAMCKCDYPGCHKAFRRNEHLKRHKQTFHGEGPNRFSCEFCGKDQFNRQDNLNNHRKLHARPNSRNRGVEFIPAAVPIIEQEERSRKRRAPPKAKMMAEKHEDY

BbCmr1 = target: T2, BbCmr1 (Beauveria bassiana, UniProt J4VZG7 1-764); assay: EMSA; 0.5-2 ug protein, 10 ng probe; concentration-dependent; complex decreased by 200-800-fold unlabeled probe; LightShift Chemiluminescent EMSA kit, manufacturer's instructions; buffer, salt, pH and temperature not given; conditions: protein: recombinant; tags: N-terminal GST (pGEX-6p); chain copies: 2; label: biotin; blunt
T2 sequence: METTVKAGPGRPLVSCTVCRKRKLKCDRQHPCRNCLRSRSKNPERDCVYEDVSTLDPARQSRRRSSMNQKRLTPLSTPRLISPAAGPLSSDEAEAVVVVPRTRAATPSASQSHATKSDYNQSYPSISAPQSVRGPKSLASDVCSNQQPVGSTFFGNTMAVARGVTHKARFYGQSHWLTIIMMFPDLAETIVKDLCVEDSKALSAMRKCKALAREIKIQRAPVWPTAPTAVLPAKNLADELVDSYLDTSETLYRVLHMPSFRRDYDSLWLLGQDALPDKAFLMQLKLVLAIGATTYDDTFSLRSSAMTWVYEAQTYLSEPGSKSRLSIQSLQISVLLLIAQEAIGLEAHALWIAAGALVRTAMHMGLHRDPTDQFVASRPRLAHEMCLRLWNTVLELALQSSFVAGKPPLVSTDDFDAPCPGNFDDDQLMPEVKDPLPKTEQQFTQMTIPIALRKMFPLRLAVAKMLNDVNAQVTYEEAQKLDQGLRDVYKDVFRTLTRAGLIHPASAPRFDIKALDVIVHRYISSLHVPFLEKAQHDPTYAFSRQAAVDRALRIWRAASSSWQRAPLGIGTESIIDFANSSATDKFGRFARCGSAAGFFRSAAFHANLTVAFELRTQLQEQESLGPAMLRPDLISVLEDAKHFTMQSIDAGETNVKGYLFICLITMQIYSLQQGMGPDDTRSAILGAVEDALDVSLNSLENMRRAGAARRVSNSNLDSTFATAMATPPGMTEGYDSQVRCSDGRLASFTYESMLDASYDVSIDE

B1: Bbcmr1 promoter probe (cmr1-EMSA) (dsDNA)
DNA 1: CGGAATTACGATATTACCCCTAGAGACAATTTTTATTATA
DNA 2: TATAATAAAAATTGTCTCTAGGGGTAATATCGTAATTCCG
BbBrlA
  binding result: binds

B2: BbbrlA promoter probe (brlA-EMSA) (dsDNA)
DNA 1: GGAAAAAAAAAAAAGAAAAGGAACCCACAACTCAAGTCT
DNA 2: AGACTTGAGTTGTGGGTTCCTTTTCTTTTTTTTTTTTCC
BbCmr1
  binding result: binds
